From article doi:10.1101/748145 (bioRxiv, 2019)

B1: LetB three-ring truncation mutant (rings 2-5 deleted), TM helix removed (domain or fragment)
chain: QDRGNTVTIDFMSADGIVPGRTPVRYQGVEVGTVQDISLSDDLRKIEVKVSIKSDMKDALREETQFWLVTPKASLAGVSGLDALVGGNYIGMMPGKGKEQDHFVALDTQPKYRLDNGSETAARAVGGQITLHAFDAGKLAVGMPIRYLGIDIGQIQTLDLITARNEVQAKAVLYPEYVQTFARGGTRFSVVTPQISAAGVEHLDTILQPYINVEPGRGNPRRDFELQEATITDSRYLDGLSIIVEAPEAGSLGIGTPVLFRGLEVGTVTGMTLGTLSDRVMIAMRISKRYQHLVRNNSVFWLASGYSLDFGLTGGVVKTGTFNQFIRGGIAFATPPGTPLAPKAQEGKHFLLQESEPKEWREWGTALPK
B2: LetB two-ring truncation mutant (rings 2-6 deleted), TM helix removed (domain or fragment)
chain: QDRGNTVTIDFMSADGIVPGRTPVRYQGVEVGTVQDISLSDDLRKIEVKVSIKSDMKDALREETQFWLVTPKASLAGVSGLDALVGGNYIGMMPGKGKEQDHFVALDTQPKYRLDNGDGLSIIVEAPEAGSLGIGTPVLFRGLEVGTVTGMTLGTLSDRVMIAMRISKRYQHLVRNNSVFWLASGYSLDFGLTGGVVKTGTFNQFIRGGIAFATPPGTPLAPKAQEGKHFLLQESEPKEWREWGTALPK
B3: LetB L243N (periplasmic domain) (domain or fragment, E. coli, UniProt P76272 43-877, looked up)
chain: QDRGNTVTIDFMSADGIVPGRTPVRYQGVEVGTVQDISLSDDLRKIEVKVSIKSDMKDALREETQFWLVTPKASLAGVSGLDALVGGNYIGMMPGKGKEQDHFVALDTQPKYRLDNGDLMIHLQAPDLGSLNSGSLVYFRKIPVGKVYDYAINPNKQGVVIDVLIERRFTDLVKKGSRFWNVSGVDANVSISGAKVKLESNAALVNGAIAFDSPEESKPAEAEDTFGLYEDLAHSQRGVIIKLELPSGAGLTADSTPLMYQGLEVGQLTKLDLNPGGKVTGEMTVDPSVVTLLRENTRIELRNPKLSLSDANLSALLTGKTFELVPGDGEPRKEFVVVPGEKALLHEPDVLTLTLTAPESYGIDAGQPLILHGVQVGQVIDRKLTSKGVTFTVAIEPQHRELVKGDSKFVVNSRVDVKVGLDGVEFLGASASEWINGGIRILPGDKGEMKASYPLYANLEKALENSLSDLPTTTVSLSAETLPDVQAGSVVLYRKFEVGEVITVRPRANAFDIDLHIKPEYRNLLTSNSVFWAEGGAKVQLNGSGLTVQASPLSRALKGAISFDNLSGASASQRKGDKRILYASETAARAVGGQITLHAFDAGKLAVGMPIRYLGIDIGQIQTLDLITARNEVQAKAVLYPEYVQTFARGGTRFSVVTPQISAAGVEHLDTILQPYINVEPGRGNPRRDFELQEATITDSRYLDGLSIIVEAPEAGSLGIGTPVLFRGLEVGTVTGMTLGTLSDRVMIAMRISKRYQHLVRNNSVFWLASGYSLDFGLTGGVVKTGTFNQFIRGGIAFATPPGTPLAPKAQEGKHFLLQESEPKEWREWGTALPK
B4: LetB L246N (periplasmic domain) (domain or fragment, E. coli, UniProt P76272 43-877, looked up)
chain: QDRGNTVTIDFMSADGIVPGRTPVRYQGVEVGTVQDISLSDDLRKIEVKVSIKSDMKDALREETQFWLVTPKASLAGVSGLDALVGGNYIGMMPGKGKEQDHFVALDTQPKYRLDNGDLMIHLQAPDLGSLNSGSLVYFRKIPVGKVYDYAINPNKQGVVIDVLIERRFTDLVKKGSRFWNVSGVDANVSISGAKVKLESLAANVNGAIAFDSPEESKPAEAEDTFGLYEDLAHSQRGVIIKLELPSGAGLTADSTPLMYQGLEVGQLTKLDLNPGGKVTGEMTVDPSVVTLLRENTRIELRNPKLSLSDANLSALLTGKTFELVPGDGEPRKEFVVVPGEKALLHEPDVLTLTLTAPESYGIDAGQPLILHGVQVGQVIDRKLTSKGVTFTVAIEPQHRELVKGDSKFVVNSRVDVKVGLDGVEFLGASASEWINGGIRILPGDKGEMKASYPLYANLEKALENSLSDLPTTTVSLSAETLPDVQAGSVVLYRKFEVGEVITVRPRANAFDIDLHIKPEYRNLLTSNSVFWAEGGAKVQLNGSGLTVQASPLSRALKGAISFDNLSGASASQRKGDKRILYASETAARAVGGQITLHAFDAGKLAVGMPIRYLGIDIGQIQTLDLITARNEVQAKAVLYPEYVQTFARGGTRFSVVTPQISAAGVEHLDTILQPYINVEPGRGNPRRDFELQEATITDSRYLDGLSIIVEAPEAGSLGIGTPVLFRGLEVGTVTGMTLGTLSDRVMIAMRISKRYQHLVRNNSVFWLASGYSLDFGLTGGVVKTGTFNQFIRGGIAFATPPGTPLAPKAQEGKHFLLQESEPKEWREWGTALPK
B5: LetB V247N (periplasmic domain) (domain or fragment, E. coli, UniProt P76272 43-877, looked up)
chain: QDRGNTVTIDFMSADGIVPGRTPVRYQGVEVGTVQDISLSDDLRKIEVKVSIKSDMKDALREETQFWLVTPKASLAGVSGLDALVGGNYIGMMPGKGKEQDHFVALDTQPKYRLDNGDLMIHLQAPDLGSLNSGSLVYFRKIPVGKVYDYAINPNKQGVVIDVLIERRFTDLVKKGSRFWNVSGVDANVSISGAKVKLESLAALNNGAIAFDSPEESKPAEAEDTFGLYEDLAHSQRGVIIKLELPSGAGLTADSTPLMYQGLEVGQLTKLDLNPGGKVTGEMTVDPSVVTLLRENTRIELRNPKLSLSDANLSALLTGKTFELVPGDGEPRKEFVVVPGEKALLHEPDVLTLTLTAPESYGIDAGQPLILHGVQVGQVIDRKLTSKGVTFTVAIEPQHRELVKGDSKFVVNSRVDVKVGLDGVEFLGASASEWINGGIRILPGDKGEMKASYPLYANLEKALENSLSDLPTTTVSLSAETLPDVQAGSVVLYRKFEVGEVITVRPRANAFDIDLHIKPEYRNLLTSNSVFWAEGGAKVQLNGSGLTVQASPLSRALKGAISFDNLSGASASQRKGDKRILYASETAARAVGGQITLHAFDAGKLAVGMPIRYLGIDIGQIQTLDLITARNEVQAKAVLYPEYVQTFARGGTRFSVVTPQISAAGVEHLDTILQPYINVEPGRGNPRRDFELQEATITDSRYLDGLSIIVEAPEAGSLGIGTPVLFRGLEVGTVTGMTLGTLSDRVMIAMRISKRYQHLVRNNSVFWLASGYSLDFGLTGGVVKTGTFNQFIRGGIAFATPPGTPLAPKAQEGKHFLLQESEPKEWREWGTALPK
B6: LetB L355N (periplasmic domain) (domain or fragment, E. coli, UniProt P76272 43-877, looked up)
chain: QDRGNTVTIDFMSADGIVPGRTPVRYQGVEVGTVQDISLSDDLRKIEVKVSIKSDMKDALREETQFWLVTPKASLAGVSGLDALVGGNYIGMMPGKGKEQDHFVALDTQPKYRLDNGDLMIHLQAPDLGSLNSGSLVYFRKIPVGKVYDYAINPNKQGVVIDVLIERRFTDLVKKGSRFWNVSGVDANVSISGAKVKLESLAALVNGAIAFDSPEESKPAEAEDTFGLYEDLAHSQRGVIIKLELPSGAGLTADSTPLMYQGLEVGQLTKLDLNPGGKVTGEMTVDPSVVTLLRENTRIELRNPKLSLSDANNSALLTGKTFELVPGDGEPRKEFVVVPGEKALLHEPDVLTLTLTAPESYGIDAGQPLILHGVQVGQVIDRKLTSKGVTFTVAIEPQHRELVKGDSKFVVNSRVDVKVGLDGVEFLGASASEWINGGIRILPGDKGEMKASYPLYANLEKALENSLSDLPTTTVSLSAETLPDVQAGSVVLYRKFEVGEVITVRPRANAFDIDLHIKPEYRNLLTSNSVFWAEGGAKVQLNGSGLTVQASPLSRALKGAISFDNLSGASASQRKGDKRILYASETAARAVGGQITLHAFDAGKLAVGMPIRYLGIDIGQIQTLDLITARNEVQAKAVLYPEYVQTFARGGTRFSVVTPQISAAGVEHLDTILQPYINVEPGRGNPRRDFELQEATITDSRYLDGLSIIVEAPEAGSLGIGTPVLFRGLEVGTVTGMTLGTLSDRVMIAMRISKRYQHLVRNNSVFWLASGYSLDFGLTGGVVKTGTFNQFIRGGIAFATPPGTPLAPKAQEGKHFLLQESEPKEWREWGTALPK
B7: LetB L358N (periplasmic domain) (domain or fragment, E. coli, UniProt P76272 43-877, looked up)
chain: QDRGNTVTIDFMSADGIVPGRTPVRYQGVEVGTVQDISLSDDLRKIEVKVSIKSDMKDALREETQFWLVTPKASLAGVSGLDALVGGNYIGMMPGKGKEQDHFVALDTQPKYRLDNGDLMIHLQAPDLGSLNSGSLVYFRKIPVGKVYDYAINPNKQGVVIDVLIERRFTDLVKKGSRFWNVSGVDANVSISGAKVKLESLAALVNGAIAFDSPEESKPAEAEDTFGLYEDLAHSQRGVIIKLELPSGAGLTADSTPLMYQGLEVGQLTKLDLNPGGKVTGEMTVDPSVVTLLRENTRIELRNPKLSLSDANLSANLTGKTFELVPGDGEPRKEFVVVPGEKALLHEPDVLTLTLTAPESYGIDAGQPLILHGVQVGQVIDRKLTSKGVTFTVAIEPQHRELVKGDSKFVVNSRVDVKVGLDGVEFLGASASEWINGGIRILPGDKGEMKASYPLYANLEKALENSLSDLPTTTVSLSAETLPDVQAGSVVLYRKFEVGEVITVRPRANAFDIDLHIKPEYRNLLTSNSVFWAEGGAKVQLNGSGLTVQASPLSRALKGAISFDNLSGASASQRKGDKRILYASETAARAVGGQITLHAFDAGKLAVGMPIRYLGIDIGQIQTLDLITARNEVQAKAVLYPEYVQTFARGGTRFSVVTPQISAAGVEHLDTILQPYINVEPGRGNPRRDFELQEATITDSRYLDGLSIIVEAPEAGSLGIGTPVLFRGLEVGTVTGMTLGTLSDRVMIAMRISKRYQHLVRNNSVFWLASGYSLDFGLTGGVVKTGTFNQFIRGGIAFATPPGTPLAPKAQEGKHFLLQESEPKEWREWGTALPK
B8: LetB L359N (periplasmic domain) (domain or fragment, E. coli, UniProt P76272 43-877, looked up)
chain: QDRGNTVTIDFMSADGIVPGRTPVRYQGVEVGTVQDISLSDDLRKIEVKVSIKSDMKDALREETQFWLVTPKASLAGVSGLDALVGGNYIGMMPGKGKEQDHFVALDTQPKYRLDNGDLMIHLQAPDLGSLNSGSLVYFRKIPVGKVYDYAINPNKQGVVIDVLIERRFTDLVKKGSRFWNVSGVDANVSISGAKVKLESLAALVNGAIAFDSPEESKPAEAEDTFGLYEDLAHSQRGVIIKLELPSGAGLTADSTPLMYQGLEVGQLTKLDLNPGGKVTGEMTVDPSVVTLLRENTRIELRNPKLSLSDANLSALNTGKTFELVPGDGEPRKEFVVVPGEKALLHEPDVLTLTLTAPESYGIDAGQPLILHGVQVGQVIDRKLTSKGVTFTVAIEPQHRELVKGDSKFVVNSRVDVKVGLDGVEFLGASASEWINGGIRILPGDKGEMKASYPLYANLEKALENSLSDLPTTTVSLSAETLPDVQAGSVVLYRKFEVGEVITVRPRANAFDIDLHIKPEYRNLLTSNSVFWAEGGAKVQLNGSGLTVQASPLSRALKGAISFDNLSGASASQRKGDKRILYASETAARAVGGQITLHAFDAGKLAVGMPIRYLGIDIGQIQTLDLITARNEVQAKAVLYPEYVQTFARGGTRFSVVTPQISAAGVEHLDTILQPYINVEPGRGNPRRDFELQEATITDSRYLDGLSIIVEAPEAGSLGIGTPVLFRGLEVGTVTGMTLGTLSDRVMIAMRISKRYQHLVRNNSVFWLASGYSLDFGLTGGVVKTGTFNQFIRGGIAFATPPGTPLAPKAQEGKHFLLQESEPKEWREWGTALPK

Biological target: the molecule itself
Test: negative stain EM

Stoichiometry N, 6:
B1
B2
B3
B4
B5
B6
B7
B8
